Laboratory results as given in the nanobody polyreactivity screen of Harvey et al. (2022).

Assay: yeast display, Sf9 membrane polyspecificity reagent, FACS + sequencing; frameworks hold sequencing errors
How it was run: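 Galactose-induced (36–48 hours) yeast carrying a synthetic nanobody display library were exposed to 10% biotinylated, detergent-solubilized Sf9 membrane reagent at 4 °C for 1 hour. FACS followed streptavidin microbead enrichment, using low and high (top ~1%) gates for expression (anti-HA) and reagent binding (streptavidin). Colony PCR, MiSeq 2 × 250 sequencing and CDR-length filtering followed. Labels for polyreactivity reflect the gate of origin.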

Row | Sequence | polyreactivity (PSR sort gate)
1 | QVQLVESGGGLVQAGGSLRLSCAASGRTLTQYAMGWYRQAPGTERELVAAINTSGDSTYYADSVKGRFTISRDNAKNTVYLQMNSLKPEDTAVYYCAADGFWSQLYHLYNGYDYWGQGTQVTVSS | low polyreactivity
2 | QVQLVESGGGLVQAGGSLRLSCAASGRTLVPYAMGWYRQAPGKERELVAAINSSGGSTYYADSVKGRFTISRDNAKNTVYLQMNSLKPEDTAVYYCAATRYSKYYWGQGTQVTVSS | high polyreactivity
3 | QVQLVESGGGLVQAGGSLRLSCAASGRTLVTNAMGWYRQAPGKERELVAAIDSDDGTTYYADSVKGRFTISRDNAKKTVYLQMNSLKPEDTAVYYCAAESYWRDDYWGQGTQVTVSS | low polyreactivity
4 | QVQLVESGGGLVQAGGSLRLSCAASGRTLWSYTMGWYRQAPGKERELVARITIGGSTNYADSVKGRFTISRDNAKNTVYLQMNSLKPEDTAVYYCNARASYSYGSYLSKSYGFDYWGQGTQVTVSS | high polyreactivity
5 | QVQLVESGGGLVQAGGSLRLSCAASGRTLYGNVMGWYRQAPGKERELVAAISRRGGSTSYADSVKGRFTISRDNAKNTVYLQMNSLKPEDTAVYYCAAGRQRYAFKYYYWGQGTQVTVSS | high polyreactivity
6 | QVQLVESGGGLVQAGGSLRLSCAASGRTLYHNAMGWYRQAPGKERELVAAISYRGTRTYYADSVKGRFTISRDKAKNTVYLQKNSLTPEDTAVYYCAADTTYATKSDYWGQGTQVTVSS | high polyreactivity
7 | QVQLVESGGGLVQAGGSLRLSCAASGRTLYPYAMGWYRQAPGKERELVAAISSTGGRTYYADSVKGRFTISRDNAKNTVYLQMNSLKPEDTAVYYCAAIYRAQYDYWGQGTQVTVSS | high polyreactivity
8 | QVQLVESGGGLVQAGGSLRLSCAASGRTLYRNAMGWYRQSPWKDREFVSRITWSGASTYYADSVKGRFTISRDNAKNTVYLQMNSLKPEDTAVYYCAAQYLSRRYGPYYTYNYWGQGTQVTVSS | high polyreactivity
9 | QVQLVESGGGLVQAGGSLRLSCAASGRTLYYKAMGWYRQAPGKERELVAAISRSGGSTYYADSVKGRFTISRDNAKNTVYLQMNSLKPEDTAVYYCAVLPSYTSWESSDYWGQGTQVTVSS | high polyreactivity
10 | QVQLVESGGGLVQAGGSLRLSCAASGRTLYYNTMGWYRQAPGKERELVASIRWDGGSTNYADSVNGRFTISRDNAKNTVYLQMNSLKPEDTAVYYCNADPGWTELEYDYWGQGTQVTVSS | low polyreactivity
11 | QVQLVESGGGLVQAGGSLRLSCAASGRTMWAYSMGWYRPAHGKERELVAAITGSGGSTYYADSVKGRFTISRDNAKNTVYLQMNSLKPEDTAVYYCAAYSRTLHYDSWGQGTHVTVSS | high polyreactivity
12 | QVQLVESGGGLVQAGGSLRLSCAASGRTSASNAMGWYREAPGKERELVATIDGIDGNTYYADSVKGRFTISRDNAKNTVYLQMNSLKPEDTAVYYCNVESWRLQAIYKYSYWGQGTQVTVSS | low polyreactivity
13 | QVQLVESGGGLVQAGGSLRLSCAASGRTSAWYAMGWYRQAPGKERELVADISGSADSTYYADSVKGRFTISRDNAKNTVYLQMNSLKPEDTAVYYCATSISTPSGDPFDYWGQGTQVTVSS | low polyreactivity
14 | QVQLVESGGGLVQAGGSLRLSCAASGRTSDGYAMGWYRPAPGKERELVAGITEGGGDTYYADSVKGRFTISRDNAKNTVYLQMNSLKPEDTAVYYCNAVEGSRLPYDYWGQGTQVTVSS | low polyreactivity
15 | QVQLVESGGGLVQAGGSLRLSCAASGRTSDINTMGWYRQAPGKERELVAAISDSDGTTYYADSVKGRFTISRDNAKNTVYLQMNSLKPDDTAVYYCAAERATVKFGYWGQGTQVTVSS | low polyreactivity
16 | QVQLVESGGGLVQAGGSLRLSCAASGRTSFGYAMGWYRQAPGKERELVAVISIGGTTYYADSVKGRFTISRDNAKNTVYLQMNSLKPEDTAVYYCAATPSNATGFLSYDYWGQGTQVTVSS | low polyreactivity
17 | QVQLVESGGGLVQAGGSLRLSCAASGRTSGGNAMGWYRQAPGKERELVAAISLRGGGTYYADSVKGRFTISRDNAKNTVYLQMNSLIPEDTAVFYCAAEFTYYGARWGYLGDLDYWGQGTQVTVSS | high polyreactivity
18 | QVQLVESGGGLVQAGGSLRLSCAASGRTSKRYAMGWYRQAPGKERELVASIRGGDGSTYYADSVKGRFTISRDNAKNTVYLQMNSLKPEDTAVYYCARASSYGYYYWGQGTQVTVSS | high polyreactivity
19 | QVQLVESGGGLVQAGGSLRLSCAASGRTSLGYDMGWYRQAPGKERELVAAITRGGSTYYADSVKGRFTISRDNAKNTVYLQMNSLKPEDTAVYYCAARPWTSASYDYWGQGTQVTVSS | low polyreactivity
20 | QVQLVESGGGLVQAGGSLRLSCAASGRTSLNYAMGWYRQAPGKERELVAAITRGGGGTYYADSVKGRFTISRDNAKNTVYLQMNSLIPEDTAVYYCNRVFSLYGYGWQKYDYWGQGTQVTVSS | high polyreactivity
21 | QVQLVESGGGLVQAGGSLRLSCAASGRTSPRYAMGWYRQAPGKEREWVASISGSGGRTYYADSVKGRFTISRDNAKNTVYLQMNSLKPEDTAVYYCAASTQGNYYPYKRYDYCGQGTQVTVSS | high polyreactivity

Row | Sequence | polyreactivity (PSR sort gate)
22 | QVQLVESGGGLVQAGGSLRLSCAASGRTSREYAMGWYRQAPGKERELVAAISWNGGSTYYADSVKGRFTISRDNAMNTVYLQMNSLKPEDTAVYYCAARGKGYYRFGYWGQGTQVTVSS | high polyreactivity
23 | QVQLVESGGGLVQAGGSLRLSCAASGRTSSSNAMGWYRQAPGKERELVATISRTGSTYYADSVKGRFTISRDNAKNTVYLQMNSLKPEDTAVYYCNRYFSEALLHGSCYNRYYYWGQGTQVTVSS | low polyreactivity
24 | QVQLVESGGGLVQAGGSLRLSCAASGRTSVLYAMGWYRQAPGKEREFVAAITWNSGSTYYADSVKGRFTISRDNAKNTVYLQMNSLKPEDTAVYYCNADYYFSSYRSTYDYWGQGTQVTVSS | low polyreactivity
25 | QVQLVESGGGLVQAGGSLRLSCAASGRTVEQNAMGLYRQAPGKERELVASITSVGSTDYADSVKGRFTISRDNAKNTVYLQMNSLKPEDTAVYYCAKTLGSQNYDFDYWGKGTQVTVSS | low polyreactivity
26 | QVQLVESGGGLVQAGGSLRLSCAASGRTVGSYVMGWYRHAPVKERELVATISRRGGTTYYADSVKARFTISRDNAKNTVYLQMNSLKPEDTAVYYCNRVIPLASYGYGYWGQGTQVTVSS | high polyreactivity
27 | QVQLVESGGGLVQAGGSLRLSCAASGRTVPYAMGWYRQAPGKERELVATITYRVSTYYADSVKGRFTISRDNAKNTVYLQMNSLKPEDTEVYYCNTVTYPYVPALYDYWGQGTQVTVSS | high polyreactivity
28 | QVQLVESGGGLVQAGGSLRLSCAASGRTYAYYAMGWYRQAPGKERELVAAITRGTDTHYADSVKGRFTISRDNAKNTVYLQMNSLKPEDTAVYYCAADLSQDFDYWGQGTQVTVSS | low polyreactivity
29 | QVQLVESGGGLVQAGGSLRLSCAASGRTYGYNAMGWYRQAPGKERELVAAISRSGDSTYYADSVKGRFTISRDNAKNTVYLQMNSLKPEDTAVYYCATRYVTTGYDYWGQGTQVTVSS | low polyreactivity
30 | QVQLVESGGGLVQAGGSLRLSCAASGRTYKYYALGWYRQARGKERELVAAITSGASTNYADSVKGRFTISRDNAKNTVYLQMNSLKPEDTAVYYCAARKAYFFDRYGYWGLGTQVTVSS | high polyreactivity
31 | QVQLVESGGGLVQAGGSLRLSCAASGRTYPRYGMGWYRQAPGKERELVDTIRTGGRTNYADSVKGRFTISRDNAKNTVYLQMNSLKPEDTAVYYCATDSSKHPYSPTLLKFDYWGQGTQVTVSS | low polyreactivity
32 | QVQLVESGGGLVQAGGSLRLSCAASGRTYPYYAMGWYRQAPGKEREVVAAITYRGGSTSYADSVKGRFTISRDNAKNTVDLQMNSLKPEDTAVYYCAARTWNRRSPYDYWGQGTQVTVSS | high polyreactivity
33 | QVQLVESGGGLVQAGGSLRLSCAASGRTYTFNTMGLSRQAPGKEREWVAAIDGDGTTNYADSVKGRFTISRDNAKNTVYLQMNSLKPEDTAVYYCAADFLYSFWYEPTFDYWGQGTQVTVSS | low polyreactivity
34 | QVQLVESGGGLVQAGGSLRLSCAASGRTYVNTMGWYRQAPGKERELVAAISWSGGRTRYADSVKGRFTISRDNAKNTVYLQMNSLKPEDTAVYYCAKRTYSRKFRGAYNYWGQGTQVTVSS | high polyreactivity
35 | QVQLVESGGGLVQAGGSLRLSCAASGRTYVVYAMGWYRQAPGKERELVARFRWRDVSTYYADSVKGRFTISRDNAKNTVYLQMNSLKPEDSAVYYCAARSYTGGGRLYYWGQGTQVTVSS | high polyreactivity
36 | QVQLVESGGGLVQAGGSLRLSCAASGRTYYYNAMGWYREAPGKERELVARISQRTGSTYYADSVKGRFTISRDNAKNTVYLQMNSLKPEDTAVYYCAASSQTRQWTNDYWGQGTQVTVSS | high polyreactivity
37 | QVQLVESGGGLVQAGGSLRLSCAASGSICAYYAMGGYRQAPGTERELVAAISQSGGSTYYADSVKGRVTISRDNAKNTVYLQMNSLKPEDTADYYCAARFRYGYSGYRYDYWGQGTQVNVSS | high polyreactivity
38 | QVQLVESGGGLVQAGGSLRLSCAASGSICVDNAMGWYRQAPGKERELVAVITLRSGSTNYADSVKGRFTISRDNAKNTVYLQMNSLKPEDTAVYYCAADDTYHDYQRDTDDDYWGQGTQVTVSS | low polyreactivity
39 | QVQLVESGGGLVQAGGSLRLSCAASGSICYSYAMGWYRQAPWKEREFVATISDSSGSTYYADSVKGRFTISRDYATNTVYLQMNSLKPEDSAVYYCATTDSYGYYGYGYWGQGTQVTVSS | low polyreactivity
40 | QVQLVESGGGLVQAGGSLRLSCAASGSIERNAMGWYRQAPGKERELVAAISRSGTRTYYADSVKGRFTISRDNAKNTVYLQMNSLKPEDTAVYYCAKASAQWVQFDYWGQGTQVTVSS | high polyreactivity
41 | QVQLVESGGGLVQAGGSLRLSCAASGSIFAAYAMGWYRQAPGKERELVAVINSRGGITSYADSVKGRFTISRDNAKNTVYLQMNSLKPEDTAVYYCAARPWYSWRYDYWGQGTQVTVSS | high polyreactivity
